Test results taken from US20260158160A1 (MACFARLANE BURNET INSTITUTE FOR MEDICAL RESEARCH AND PUBLIC …, published 2026).
Residue numbers refer to the chain shown, from its start. Where two headings read alike, the source gives them in different places.

Key:
[1] = target: T1, dimeric rsFcγRIIa (H131 allelic form) (UniProt P12318 34-217); experiment: flow cytometry: Ramos-S cells opsonised with the ACE2-Fc protein, biotinylated dimeric rsFcγRIIa probe, streptavidin-APC
T1 construct: also called dimeric recombinant soluble FcγRIIa
T1 sequence: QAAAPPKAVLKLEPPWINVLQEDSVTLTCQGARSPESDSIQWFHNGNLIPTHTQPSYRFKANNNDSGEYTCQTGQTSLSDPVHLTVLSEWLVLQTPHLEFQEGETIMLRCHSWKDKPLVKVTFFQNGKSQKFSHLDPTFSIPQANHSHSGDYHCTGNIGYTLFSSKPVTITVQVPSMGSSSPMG

[2] = target: human death receptor 5 (DR5) on cells (human, UniProt O14763 56-440); experiment: cell-based or functional assay
[3] = target: T2, FcγRIIIa V158 on NF-κB-RE nanoluciferase reporter cells (UniProt P08637 17-254); experiment: cell-based or functional assay
[4] = target: T2, FcγRIIIa V158 on NF-κB-RE …; experiment: cell-based or functional assay; remark: listed apart in the source
[5] = target: T3, SARS-CoV-2 spike protein expressed on Ramos-S cells (SARS-CoV-2, UniProt P0DTC2 14-1273); experiment: flow cytometry on Ramos-S cells
T3 construct: whole, on cells; also called S protein; Ramos cells expressing transfected spike protein

T2 sequence (P08637 17-254 F176V limits assumed): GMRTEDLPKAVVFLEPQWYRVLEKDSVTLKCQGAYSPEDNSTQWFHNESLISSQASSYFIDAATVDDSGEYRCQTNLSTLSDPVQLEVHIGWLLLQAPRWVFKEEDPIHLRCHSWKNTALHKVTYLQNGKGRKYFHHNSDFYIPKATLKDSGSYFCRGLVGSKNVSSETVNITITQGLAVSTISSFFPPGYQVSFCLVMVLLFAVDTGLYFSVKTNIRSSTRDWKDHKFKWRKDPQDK

B1: EflACE2-Fc-H429Y (Fc fusion)
chain: ETGSTIEEQAKYFLDKFNHEAEDLFYQSSLASWNYNTNITEENVQNMNNAGDKWSAFLKEQSTTAQMYPLQEIQNLTVKLQLQALQQNGSSVLSEDKSKRLNTILNTMSTIYSTGKVCNPDNPQECLLLEPGLNEIMANSLDYNERLWAWESWRSEVGKQLRPLYEEYVVLKNEMARANHYEDYGDYWRGDYEVNGVDGYDYSRGQLIEDVEHTFEEIKPLYEHLHAYVRAKLMNAYPSYISPIGCLPAHLLGDMWGRFWTNLYSLTVPFGQKPNIDVTDAMVDQAWDAQRIFKEAEKFFVSVGLPNMTQGFWEYSMLTDPGNVQKAVCHPTAWDLGKGDFRILMCTKVTMDDFLTAHHEMGHIQYDMAYAAQPFLLRNGANEGFHEAVGEIMSLSAATPKHLKSIGLLSPDFQEDNETEINFLLKQALTIVGTLPFTYMLEKWRWMVFKGEIPKDQWMKKWWEMKREIVGVVEPVPHDETYCDPASLFHVSNDYSFIRYYTRTLYQFQFQEALCQAAKHEGPLHKCDISNSTEAGQKLFNMLRLGKSEPWTLALENVVGAKNMNVRPLLNYFEPLFTWLKDQNKNSFVGWSTDWSPYADQSIKVRISLKSALGDRAYEWNDNEMYLFRSSVAYAMRQYFLKVKNQMILFGEEDVRVANLKPRISFNFFVTAPKNVSDIIPRTEVEKAIRMSRSRINDAFRLNDNSLEFLGIQPTLGPPNQPPVSGGGGSTHTCPPCPAPELLGGPSVFLFPPKPKDTLMISRTPEVTCVVVDVSHEDPEVKFNWYVDGVEVHNAKTKPREEQYNSTYRVVSVLTVLHQDWLNGKEYKCKVSNKALPAPIEKTISKAKGQPREPQVYTLPPSREEMTKNQVSLTCLVKGFYPSDIAVEWESNGQPENNYKTTPPVLDSDGSFFLYSKLTVDKSRWQQGNVFSCSVMYEALHNHYTQKSLSLSPGK
notes: also called EflACE2-Fc-H429Yoli; Yoli
B1: no binding (tested: 5 µg/ml (opsonising protein)) [1].

B2: TDR5-A2WT (antibody)
heavy: QVQLVQSGAEVKKPGASVKVSCKASGFNIKDTHMHWVRQAPGQRLEWIGRIDPANGNTEYDQKFQGRVTITVDTSASTAYMELSSLRSEDTAVYYCARWGTNVYFAYWGQGTLVTVSSASPTSPKVFPLSLDSTPQDGNVVVACLVQGFFPQEPLSVTWSESGQNVTARNFPPSQDASGDLYTTSSQLTLPATQCPDGKSVTCHVKHYTNPSQDVTVPCPVPPPPPCCHPRLSLHRPALEDLLLGSEANLTCTLTGLRDASGATFTWTPSSGKSAVQGPPERDLCGCYSVSSVLPGCAQPWNHGETFTCTAAHPELKTPLTANITKSGNTFRPEVHLLPPPSEELALNELVTLTCLARGFSPKDVLVRWLQGSQELPREKYLTWASRQEPSQGTTTFAVTSILRVAAEDWKKGDTFSCMVGHEALPLAFTQKTIDRLAG
light: DIQLTQSPSSLSASVGDRVTITCSASSSVSYMYWYQQKPGKAPKPWIYRTSNLASGVPSRFSGSGSGTDFTLTISSLQPEDFATYYCQQYHSYPPTFGGGTKVEIKRTVAAPSVFIFPPSDEQLKSGTASVVCLLNNFYPREAKVQWKVDNALQSGNSQESVTEQDSKDSTYSLSSTLTLSKADYEKHKVYACEVTHQGLSSPVTKSFNRGEC
B2 was tested, and the “death of Colo205 cells, EC50 as dilution of culture supernatant” value [2] was about 0.167 dilution.

B3: TDR5-A2HF (antibody)
heavy: B2 heavy with H422F
light: B2 light
B3 was tested, and the “death of Colo205 cells, EC50 as dilution of culture supernatant” value [2] was over 0.00195 dilution.

B4: rituximab-WT (antibody, human IgG1, kappa)
heavy: not shown
light: QIVLSQSPAILSASPGEKVTMTCRASSSVSYIHWFQQKPGSSPKPWIYATSNLASGVPVRFSGSGSGTSYSLTISRVEAEDAATYYCQQWTSNPPTFGGGTKVEIKRTVAAPSVFIFPPSDEQLKSGTASVVCLLNNFYPREAKVQWKVDNALQSGNSQESVTEQDSKDSTYSLSSTLTLSKADYEKHKVYACEVTHQGLSSPVTKSFNRGEC
With B4 the “EC50 (read off the curve), FcγRIIIa reporter activation” value [3] was about 40 pM and the “EC50 (read off the curve), FcγRIIIa reporter activation” value [4] was about 30 pM.

B5: CC40.8-WT (antibody)
heavy: not shown
light: SYELTQPPSVSVSPGQTARITCSGDALPKRYAYWYQQKSGQAPILVIYEDKKRPSGIPERLSGSKSGTVATLTISGAQVEDEADYYCYSTDSSGNHAVFGGGTQLTVLGQPKAAPSVFIFPPSDEQLKSGTASVVCLLNNFYPREAKVQWKVDNALQSGNSQESVTEQDSKDSTYSLSSTLTLSKADYEKHKVYACEVTHQGLSSPVTKSFNRGEC
B5: binds [5].
